1 substance from article PMC4608048 can be followed below.

For this assay, the target named is UbcH10^LR (as used in surface plasmon resonance) (human). Nature of the assay: SPR.

As to “APC/C^Cdh1.Hsl1 (from UniProt Q9H1A4;Q9UJX6;P30260;Q9UJX5;Q9UJX4;Q13042;Q9UJX3;Q9UJX2;Q9UM13;Q9NYG5;Q8NHZ8;Q9BS18;P60006;Q96DE5;Q9UM11-2;P34244) (complex)”, the K^kin d (fast) was determined as 24 nM, the K^kin d (slow) worked out at 23 nM, the koff (fast) was 0.04 s⁻¹ and the koff (slow) is 0.0046 s⁻¹. Besides, the kon (fast) amounted to 1.7e+06 M⁻¹ s⁻¹ and the kon (slow) stood at 170000 M⁻¹ s⁻¹.
